The text below walks through data of doi:10.1101/2025.08.18.670068, “Computational Design of Soluble CCR8 Analogues with Preserved Antibody Binding” (bioRxiv, 2025).

The target of the experiment is T1, Wild-type CCR8 used as an assay control (Homo sapiens, UniProt P51685).
T1 construct: C-C chemokine receptor 8 (CCR8), human, wild type; Detergent-solubilised; 0.05% DDM and 0.01% CHS in the SPR running buffer; also called WT-CCR8; wild-type Human CCR8 protein; source: bought: Acro Biosystems (Cat. #CC8-H52D6)
Description: SPR; Biacore 8K; mAb1 IgG1 captured on Protein A chip (about 400 RU); wild-type CCR8 as analyte; 10 mM HEPES, 150 mM NaCl, 3 mM EDTA, 0.005% Tween-20, pH 7.4, with 0.05% DDM and 0.01% CHS; steady-state affinity fit. The note with it: both partners purified. In general terms: SPR reads the build-up and loss of mass on a sensor chip optically.

What is called Kd is a measure of binding affinity in units of concentration. A high value points to a looser complex.

B1: mAb1 in full length human IgG1 format (antibody, V domains shown)
VH: QSVEESGGRLVTPGTPLTLTCTVSGFSLSNYAMIWVRQAPGEGLEWVGTISLGGYTYYANWAKGRFTISKTSTTVDLKISSPTTEDTATYFCARARWSTDSAIYTYAFDPWGPGTLVTVSS
VL: AYDMTQTPASVEVAVGGTVTIKCQASQSISSYLSWYQQKPGQRPELLIYKASTLASGVSSRFKGSGSGTQFTLTISDLEAADAATYYCQQGYTSSNIDNIFGGGTEVVVK
notes: VH of mAb1; constant region of human IgG1 heavy chain ('full length human IgG1 format'); light chain of mAb1; IgG1; captured on a Protein A chip for SPR; source: CHO cells, purified by one step Protein A chromatography
With B1, the Kd was determined as 190 nM.
